Source: patent US20200102373A1 (COLORADO STATE UNIVERSITY RESEARCH FOUNDATION, published 2020)
Where a chain is given by its changes, count along the chain named.

Experiments:
H2B-mCh-TrunTag = molecular target: T1, H2B-mCh-TrunTag; experiment: live-cell fluorescence imaging of U2OS cells co-expressing the GFP-fused scFv and H2B-mCh-TrunTag; co-localization in the nucleus
T1 construct: not shown: Histone H2B, mCherry and the linkers between the parts
T1 peptide: LPGRWKPKM

H2B-mCh-OrigTag = molecular target: T2, H2B-mCh-OrigTag; experiment: live-cell fluorescence imaging of U2OS cells co-expressing the GFP-fused scFv and H2B-mCh-OrigTag; co-localization in the nucleus
T2 construct: not shown: Histone H2B, mCherry and the linkers between the parts
T2 peptide: MSLPGRWKPKM

[1] = molecular target: T3, mitoNEET (Mito) fused to mCherry and a C-terminal smHA tag (Mito-mCh-smHA) (Homo sapiens (Human), UniProt Q9NZ45 1-33); experiment: live-cell imaging, U2OS cells; reference Mito-mCh-1×HA
T3 construct: also called smHA tagged Mito
T3 peptide: YPYDVPDYA

[2] = molecular target: T4, mCherry-H2B without HA tag (mCh-H2B) (UniProt P06899 1-126); experiment: nuclear to cytoplasmic fluorescence ratio of FB-GFP in living U2OS cells lacking the HA tag
[3] = molecular target: T3, mitoNEET (Mito) fused to mCherry and a …; experiment: live-cell imaging, U2OS cells, FB-GFP fluorescence at mitochondria over background
[4] = molecular target: T4, mCherry-H2B without HA tag (mCh-H2B); experiment: nuclear to cytoplasmic fluorescence ratio of the GFP-fused scFv in living U2OS cells with mCh-H2B lacking the HA tag

B1: χ15F11^HIV chimeric anti-HIV protease scFv fused to GFP (scFv)
scFv: MAEVKLVESGGGLVKPGGSLKLSCAASGFTFSRFGMHWVRQTPEKRLEWVAYISSGSSTIYYADTVKGRFTISRDNAKNTLYLQMSSLRSEDTAIYYCARSGGIERYDGTYYVMDYWGQGTTLTVSSGGGGSGGGGSGGGGSDIVLTQSPASLTVSLGQRATISCRASESVDYYGKSFMNWYQQKPGQPPKLLIYAASNQGSGIPARFSGSGSGTDFTLNIHPVEEEDAATYYCQQSKEVPWTFGAGTKLEI
notes: also called 15F11-HIV-FB; anti-HIV protease frankenbody
binding result (H2B-mCh-TrunTag): binds
binding result (H2B-mCh-OrigTag): binds

B2: χ15F11^HA chimeric anti-HA scFv fused to mEGFP (HA frankenbody, FB-GFP), expressed in cells (scFv, not shown: large carriers)
scFv: MAEVKLVESGGGLVKPGGSLKLSCAASGFTFSSYGMSWVRQTPEKRLEWVATISRGGSYTYYPDSVKGRFTISRDNAKNTLYLQMSSLRSEDTAIYYCARRETYDEKGFAYWGQGTTLTVSSGGGGSGGGGSGGGGSDIVLTQSPASLTVSLGQRATISCKSSQSLLNSGNQKNYLTWYQQKPGQPPKLLIYWASTRESGIPARFSGSGSGTDFTLNIHPVEEEDAATYYCQNDNSHPLTFGAGTKLEIGGGGSGGGGSGGGGSGGGGSGGGGS
notes: also called 15F11-HA-FB; pCMV-15F11-HA-mEGFP
Mito/Bg ratio of smHA tagged Mito against 1×HA tagged Mito [1]: 4.7 times
binding result [2]: no binding
mitochondria to background fluorescent intensity ratio (Mito/Bg) [3]: 16.6 ratio

B3: χ2E2^HA chimeric anti-HA scFv fused to mEGFP (scFv, not shown: large carriers)
scFv: B2 scFv with K5Q, G12D, E44D, R89K, I95M, T117S, L118V, T149A, A243G
notes: also called 2E2-HA-FB; pCMV-2E2-HA-mEGFP
binding result [4]: no binding
